US20240368239A1 (SL METAGEN, published 2024)
Where a chain is given by its changes, count along the chain named.

Legend:
Assay in all cases: cell-based or functional assay
human GLP-2 receptor [1] = molecular target: T1, human GLP-2 receptor (human, UniProt O95838 1-553)
T1 sequence (looked up): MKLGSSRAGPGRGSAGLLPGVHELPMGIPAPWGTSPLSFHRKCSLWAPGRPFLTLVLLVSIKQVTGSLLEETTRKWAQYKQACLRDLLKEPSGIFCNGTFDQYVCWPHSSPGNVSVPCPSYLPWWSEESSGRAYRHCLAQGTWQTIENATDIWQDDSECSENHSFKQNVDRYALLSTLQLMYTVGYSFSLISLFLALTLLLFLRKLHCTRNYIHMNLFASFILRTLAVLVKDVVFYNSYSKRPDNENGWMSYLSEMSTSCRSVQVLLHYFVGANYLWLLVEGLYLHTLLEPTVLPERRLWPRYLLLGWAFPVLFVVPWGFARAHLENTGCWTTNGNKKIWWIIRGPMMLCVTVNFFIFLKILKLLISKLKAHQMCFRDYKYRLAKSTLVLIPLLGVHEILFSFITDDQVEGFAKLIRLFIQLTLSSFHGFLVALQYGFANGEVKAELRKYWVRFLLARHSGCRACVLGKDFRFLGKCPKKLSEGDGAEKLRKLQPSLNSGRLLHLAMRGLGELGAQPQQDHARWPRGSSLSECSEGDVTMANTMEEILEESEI

GLP-1 receptor [2] = molecular target: GLP-1 receptor
GLP-1 receptor [3] = molecular target: GLP-1 receptor; remark: listed apart in the source
GLP-1 receptor [4] = molecular target: GLP-1 receptor; remark: listed apart in the source
human GLP-2 receptor [5] = molecular target: T1, human GLP-2 receptor; remark: listed apart in the source

B1: MG12-4 (bispecific fusion protein of Example 4) (Fc fusion)
chain 1: HGEGTFTSDVSSYLEGQAAKEFIAWLVKGGPSSGAPPPSGGGGGSGGGGSGGGGSAKNTTAPATTRNTTRGGEEKKKEKEKEEQEERTHTCPPCPSHTQPLGVFLFPPKPKDQLMISRTPEVTCVVVDVSQEDPEVQFNWYVDGVEVHNAKTKPREEQFNSTYRVVSVLTVLHQDWLNGKEYKCKVSNKGLPSSIEKTISKAKGQPREPQVYTLPPCQEEMTKNQVSLWCLVKGFYPSDIAVEWESNGQPENNYKTTPPVLDSDGSFFLYSRLTVDKSRWQEGNVFSCSVLHEALHNHYTQKSLSLSLGK
chain 2: HGDGSFSDEMNTILDNLAARDFINWLIQTKITDGGGGSGGGGSGGGGSEKEKEEQEERTHTCPPCPSHTQPLGVFLFPPKPKDQLMISRTPEVTCVVVDVSQEDPEVQFNWYVDGVEVHNAKTKPREEQFNSTYRVVSVLTVLHQDWLNGKEYKCKVSNKGLPSSIEKTISKAKGQPREPQVCTLPPSQEEMTKNQVSLSCAVKGFYPSDIAVEWESNGQPENNYKTTPPVLDSDGSFFLVSRLTVDKSRWQEGNVFSCSVLHEALHNHYTQKSLSLSLGK
modifications: glycan linker (SEQ ID NO: 43) with N-glycosylation sites
With B1 the “EC50 (nM), cAMP-gated CNG channel membrane potential dye fluorescence (Ft/F0) in Human GLP2R ACTOne cells” value (“EC50 (nM)” below) (human GLP-2 receptor [1]) was 1.22 nM, the “vs. GLP-2 relative activity (%)” value (human GLP-2 receptor [1]) was 48% and the “EC50 (pM), cAMP luciferase reporter in GLP1R_cAMP/luc cells” value (“EC50 (pM) … in GLP1R_cAMP/luc cells” for short) (GLP-1 receptor [2]) was 66 pM. The “vs. GLP-1 relative activity (%)” value (GLP-1 receptor [2]) was 39%.

B2: MG12-1 (bispecific fusion protein of Example 1) (Fc fusion)
chain 1: HGEGTFTSDVSSYLEGQAAKEFIAWLVKGRGGGGGSGGGGSGGGGSAKNTTAPATTRNTTRGGEEKKKEKEKEEQEERTHTCPPCPSHTQPLGVFLFPPKPKDTLMISRTPEVTCVVVDVSQEDPEVQFNWYVDGVEVHNAKTKPREEQFNSTYRVVSVLTVLHQDWLNGKEYKCKVSNKGLPSSIEKTISKAKGQPREPQVYTLPPCQEEMTKNQVSLWCLVKGFYPSDIAVEWESNGQPENNYKTTPPVLDSDGSFFLYSRLTVDKSRWQEGNVFSCSVMHEALHNHYTQKSLSLSLGK
chain 2: B1 chain 2 with Q84T, L262M
modifications: glycan linker (SEQ ID NO: 43) with N-glycosylation sites
B2 was tested, and the “EC50 (nM)” value (human GLP-2 receptor [1]) was 1.35 nM, the “vs. GLP-2 relative activity (%)” value (human GLP-2 receptor [1]) was 43% and the “EC50 (pM) … in GLP1R_cAMP/luc cells” value (GLP-1 receptor [2]) was 304 pM. For the same binder, the “vs. GLP-1 relative activity (%)” value (GLP-1 receptor [2]) was 9% and the “fold reduction of GLP-1 activity (cAMP luciferase reporter)” value (GLP-1 receptor [3]) was about 11 times.

B3: MG12-5 (bispecific fusion protein of Example 5) (Fc fusion)
chain 1: HGEGTFTSDVSSYLEGQAAKEFIAWLVKGGPSSGAPPPSGGGGSGGGGSGGGGSEKEKEEQEERTHTCPPCPSHTQPLGVFLFPPKPKDQLMISRTPEVTCVVVDVSQEDPEVQFNWYVDGVEVHNAKTKPREEQFNSTYRVVSVLTVLHQDWLNGKEYKCKVSNKGLPSSIEKTISKAKGQPREPQVYTLPPCQEEMTKNQVSLWCLVKGFYPSDIAVEWESNGQPENNYKTTPPVLDSDGSFFLYSRLTVDKSRWQEGNVFSCSVLHEALHNHYTQKSLSLSLGK
chain 2: B1 chain 2
With B3 the “EC50 (nM)” value (human GLP-2 receptor [1]) was 0.99 nM, the “vs. GLP-2 relative activity (%)” value (human GLP-2 receptor [1]) was 59% and the “EC50 (pM) … in GLP1R_cAMP/luc cells” value (GLP-1 receptor [2]) was 75 pM. For the same binder, the “vs. GLP-1 relative activity (%)” value (GLP-1 receptor [2]) was 35%.

B4: MG12-2 (bispecific fusion protein of Example 2) (Fc fusion)
chain 1: HGDGSFSDEMNTILDNLAARDFINWLIQTKITDGGGGSGGGGSGGGGSAKNTTAPATTRNTTRGGEEKKKEKEKEEQEERTHTCPPCPSHTQPLGVFLFPPKPKDTLMISRTPEVTCVVVDVSQEDPEVQFNWYVDGVEVHNAKTKPREEQFNSTYRVVSVLTVLHQDWLNGKEYKCKVSNKGLPSSIEKTISKAKGQPREPQVYTLPPCQEEMTKNQVSLWCLVKGFYPSDIAVEWESNGQPENNYKTTPPVLDSDGSFFLYSRLTVDKSRWQEGNVFSCSVMHEALHNHYTQKSLSLSLGK
chain 2: HGEGTFTSDVSSYLEGQAAKEFIAWLVKGRGGGGGSGGGGSGGGGSEKEKEEQEERTHTCPPCPSHTQPLGVFLFPPKPKDTLMISRTPEVTCVVVDVSQEDPEVQFNWYVDGVEVHNAKTKPREEQFNSTYRVVSVLTVLHQDWLNGKEYKCKVSNKGLPSSIEKTISKAKGQPREPQVCTLPPSQEEMTKNQVSLSCAVKGFYPSDIAVEWESNGQPENNYKTTPPVLDSDGSFFLVSRLTVDKSRWQEGNVFSCSVMHEALHNHYTQKSLSLSLGK
modifications: glycan linker (SEQ ID NO: 43) with N-glycosylation sites
For B4, the “EC50, GLP-1 activity (luciferase reporter assay)” value (GLP-1 receptor [4]) was 0.402 nM and the “EC50, GLP-2 activity (fluorescence spectroscopy)” value (human GLP-2 receptor [5]) was 44 nM.
